B1: NLV3 TCR beta chain (CDR3β only) (parent)
chain: ASSPTGGSPSPLH

The variants in the assay derive from B1. Nature of the assay: T-Switch: Jurkat TCRβ−/− cells expressing a CDR3 saturation-mutagenesis library, stained with two peptide-HLA-A*02:01 tetramers (original and novel peptide) plus anti-CD3, FACS-sorted into four gates, gDNA sequenced. As to conditions: tetramers 1 µg/mL, 30 min on ice, SP, DP and SW gates expanded about 10 days between rounds ('two to three rounds of selection' in the Methods), unresolved parent, parent is a CDR3 fragment, scale: fold enrichment, numbering: sequential-on-construct, sequence starts at 1.

Where [1] appears, read: with both tetramers (double-negative gate, binds neither): HLA-A*02:01 with … and with …, gate DN: OPPOSITE: higher = more of the variant in the gate that binds neither peptide = LESS binding (or no expression; inferred). Fold enrichment of the CDR3 variant in one FACS gate of a two-tetram.
The mark [2] stands for this setting: with both tetramers (double-positive gate): HLA-A*02:01 with … and with …, gate DP: higher = more of the variant in the gate that binds both peptides. Fold enrichment of the CDR3 variant in one FACS gate of a two-tetramer stain. SP/DP/SW gates were expanded and re-sorted bef.

With […] (CDR3 as printed); A1V derived by comparing it with the table's wild-type CDR3 ASSPTGGSPSPLH, the enrichment was 0.797 under setting [1] and 0 under setting [2].
As to […] (CDR3 as printed); A1W derived by comparing it with the table's wild-type CDR3 ASSPTGGSPSPLH, the enrichment is, setting by setting: under setting [1], 0.805; under setting [2], 0.
In the same order, the values of […] (CDR3 as printed); P9Y derived by comparing it with the table's wild-type CDR3 ASSPTGGSPSPLH are 0.562 and 0.
For […] (CDR3 as printed); P9A derived by comparing it with the table's wild-type CDR3 ASSPTGGSPSPLH, the enrichment under setting [1] amounted to 0.394 and the enrichment under setting [2] came to 114.
The corresponding values for […] (CDR3 as printed); G6A derived by comparing it with the table's wild-type CDR3 ASSPTGGSPSPLH are 0.582 and 0.
The corresponding values for […] (CDR3 as printed); L12D derived by comparing it with the table's wild-type CDR3 ASSPTGGSPSPLH are 0.327 and 0.
As to […] (CDR3 as printed); L12I derived by comparing it with the table's wild-type CDR3 ASSPTGGSPSPLH, the enrichment is, setting by setting: under setting [1], 0.883; under setting [2], 0.
In the same order, the values of […] (CDR3 as printed); A1I derived by comparing it with the table's wild-type CDR3 ASSPTGGSPSPLH are 1.15 and 0.
As for […] (CDR3 as printed); S3R derived by comparing it with the table's wild-type CDR3 ASSPTGGSPSPLH, the enrichment amounted to 0.964 under setting [1] and 0 under setting [2].
The corresponding values for […] (CDR3 as printed); L12G derived by comparing it with the table's wild-type CDR3 ASSPTGGSPSPLH are 0.618 and 0.
On to […] (CDR3 as printed); S8H derived by comparing it with the table's wild-type CDR3 ASSPTGGSPSPLH, for which the enrichment was determined as 0.901 under setting [1] and 0 under setting [2].
Regarding […] (CDR3 as printed); H13N derived by comparing it with the table's wild-type CDR3 ASSPTGGSPSPLH, the enrichment under setting [1] is 0.56 and the enrichment under setting [2] worked out at 0.
In the same order, the values of […] (CDR3 as printed); P11H derived by comparing it with the table's wild-type CDR3 ASSPTGGSPSPLH are 1.37 and 0.
The corresponding values for […] (CDR3 as printed); S8N derived by comparing it with the table's wild-type CDR3 ASSPTGGSPSPLH are 1.07 and 0.
The corresponding values for […] (CDR3 as printed); G7S derived by comparing it with the table's wild-type CDR3 ASSPTGGSPSPLH are 1.32 and 0.
For the variant […] (CDR3 as printed); S3W derived by comparing it with the table's wild-type CDR3 ASSPTGGSPSPLH, the enrichment runs as follows: under setting [1], 0.749; under setting [2], 0.
The corresponding values for […] (CDR3 as printed); P11G derived by comparing it with the table's wild-type CDR3 ASSPTGGSPSPLH are 1.17 and 0.
In the case of […] (CDR3 as printed); A1L derived by comparing it with the table's wild-type CDR3 ASSPTGGSPSPLH, the enrichment reads like this: under setting [1], 0.861; under setting [2], 0.
For […] (CDR3 as printed); A1D derived by comparing it with the table's wild-type CDR3 ASSPTGGSPSPLH, the enrichment reads like this: under setting [1], 0.881; under setting [2], 0.
The corresponding values for […] (CDR3 as printed); L12A derived by comparing it with the table's wild-type CDR3 ASSPTGGSPSPLH are 1.68 and 0.
In the case of […] (CDR3 as printed); T5C derived by comparing it with the table's wild-type CDR3 ASSPTGGSPSPLH, the enrichment is 1.08 under setting [1] and 0 under setting [2].
In the same order, the values of […] (CDR3 as printed); S8P derived by comparing it with the table's wild-type CDR3 ASSPTGGSPSPLH are 1.03 and 0.
The corresponding values for […] (CDR3 as printed); H13S derived by comparing it with the table's wild-type CDR3 ASSPTGGSPSPLH are 0.978 and 0.
Regarding […] (CDR3 as printed); P4K derived by comparing it with the table's wild-type CDR3 ASSPTGGSPSPLH, the enrichment was found to be 0.891 under setting [1] and 0 under setting [2].
For the variant […] (CDR3 as printed); S10I derived by comparing it with the table's wild-type CDR3 ASSPTGGSPSPLH, the enrichment reads like this: under setting [1], 0.982; under setting [2], 0.
Consider […] (CDR3 as printed); S10N derived by comparing it with the table's wild-type CDR3 ASSPTGGSPSPLH, for which the enrichment under setting [1] was 1.13 and the enrichment under setting [2] was 0.
In the same order, the values of […] (CDR3 as printed); H13D derived by comparing it with the table's wild-type CDR3 ASSPTGGSPSPLH are 0.745 and 0.
The corresponding values for […] (CDR3 as printed); H13R derived by comparing it with the table's wild-type CDR3 ASSPTGGSPSPLH are 0.602 and 0.
In the same order, the values of […] (CDR3 as printed); P9C derived by comparing it with the table's wild-type CDR3 ASSPTGGSPSPLH are 0.869 and 0.
With […] (CDR3 as printed); P11E derived by comparing it with the table's wild-type CDR3 ASSPTGGSPSPLH, the enrichment under setting [1] came to 0.639 and the enrichment under setting [2] amounted to 0.
In the same order, the values of […] (CDR3 as printed); S10A derived by comparing it with the table's wild-type CDR3 ASSPTGGSPSPLH are 0.624 and 0.
The corresponding values for […] (CDR3 as printed); S8C derived by comparing it with the table's wild-type CDR3 ASSPTGGSPSPLH are 0.677 and 0.
For […] (CDR3 as printed); S3N derived by comparing it with the table's wild-type CDR3 ASSPTGGSPSPLH, the enrichment is, setting by setting: under setting [1], 0.483; under setting [2], 0.
For the variant […] (CDR3 as printed); H13V derived by comparing it with the table's wild-type CDR3 ASSPTGGSPSPLH, the enrichment under setting [1] was found to be 0.58 and the enrichment under setting [2] is 0.
On to […] (CDR3 as printed); T5L derived by comparing it with the table's wild-type CDR3 ASSPTGGSPSPLH, for which the enrichment was determined as 0.514 under setting [1] and 0 under setting [2].
On to […] (CDR3 as printed); L12Q derived by comparing it with the table's wild-type CDR3 ASSPTGGSPSPLH, for which the enrichment runs as follows: under setting [1], 0.615; under setting [2], 0.
In the same order, the values of […] (CDR3 as printed); S2I derived by comparing it with the table's wild-type CDR3 ASSPTGGSPSPLH are 0.694 and 0.
The corresponding values for […] (CDR3 as printed); P4C derived by comparing it with the table's wild-type CDR3 ASSPTGGSPSPLH are 0.776 and 0.
In the same order, the values of […] (CDR3 as printed); H13I derived by comparing it with the table's wild-type CDR3 ASSPTGGSPSPLH are 0.602 and 0.
With […] (CDR3 as printed); P4F derived by comparing it with the table's wild-type CDR3 ASSPTGGSPSPLH, the enrichment runs as follows: under setting [1], 1.02; under setting [2], 0.
Take […] (CDR3 as printed); S3Q derived by comparing it with the table's wild-type CDR3 ASSPTGGSPSPLH: the enrichment is, setting by setting: under setting [1], 1.09; under setting [2], 0.
In the same order, the values of […] (CDR3 as printed); G7D derived by comparing it with the table's wild-type CDR3 ASSPTGGSPSPLH are 1.18 and 0.
In the same order, the values of […] (CDR3 as printed); S3H derived by comparing it with the table's wild-type CDR3 ASSPTGGSPSPLH are 0.931 and 0.
In the case of […] (CDR3 as printed); H13Y derived by comparing it with the table's wild-type CDR3 ASSPTGGSPSPLH, the enrichment runs as follows: under setting [1], 0.87; under setting [2], 0.
As to […] (CDR3 as printed); L12F derived by comparing it with the table's wild-type CDR3 ASSPTGGSPSPLH, the enrichment amounted to 1.49 under setting [1] and 0 under setting [2].
The corresponding values for […] (CDR3 as printed); H13L derived by comparing it with the table's wild-type CDR3 ASSPTGGSPSPLH are 0.846 and 0.
Consider […] (CDR3 as printed); P9K derived by comparing it with the table's wild-type CDR3 ASSPTGGSPSPLH, for which the enrichment was 0.805 under setting [1] and 0 under setting [2].
On to […] (CDR3 as printed); P4H derived by comparing it with the table's wild-type CDR3 ASSPTGGSPSPLH, for which the enrichment was 0.553 under setting [1] and 0 under setting [2].
For the variant […] (CDR3 as printed); G7R derived by comparing it with the table's wild-type CDR3 ASSPTGGSPSPLH, the enrichment stood at 1.17 under setting [1] and 0 under setting [2].
The corresponding values for […] (CDR3 as printed); P11N derived by comparing it with the table's wild-type CDR3 ASSPTGGSPSPLH are 1.51 and 0.
With […] (CDR3 as printed); A1M derived by comparing it with the table's wild-type CDR3 ASSPTGGSPSPLH, the enrichment was 1.12 under setting [1] and 0 under setting [2].
In the same order, the values of […] (CDR3 as printed); P11M derived by comparing it with the table's wild-type CDR3 ASSPTGGSPSPLH are 0.318 and 0.
In the same order, the values of […] (CDR3 as printed); P4A derived by comparing it with the table's wild-type CDR3 ASSPTGGSPSPLH are 0.738 and 0.
For the variant […] (CDR3 as printed); G6F derived by comparing it with the table's wild-type CDR3 ASSPTGGSPSPLH, the enrichment reads like this: under setting [1], 1.27; under setting [2], 0.
In the same order, the values of […] (CDR3 as printed); S8I derived by comparing it with the table's wild-type CDR3 ASSPTGGSPSPLH are 1.23 and 0.
The corresponding values for […] (CDR3 as printed); S3P derived by comparing it with the table's wild-type CDR3 ASSPTGGSPSPLH are 0.64 and 0.
In the same order, the values of […] (CDR3 as printed); G7W derived by comparing it with the table's wild-type CDR3 ASSPTGGSPSPLH are 1.22 and 0.
Consider […] (CDR3 as printed); S2K derived by comparing it with the table's wild-type CDR3 ASSPTGGSPSPLH, for which the enrichment is, setting by setting: under setting [1], 0.571; under setting [2], 0.
